From paper doi:10.1101/2025.08.03.668247, “The structure of Egalitarian in complex with the K10 mRNA localization signal reveals a modular binding surface required for function”
Residue numbers refer to the chain shown, from its start.

Legend:
Details in all cases: protein: recombinant; tags: N-terminal GST; label: 5'-6-FAM; hairpin with two bulges
Egl1-819 = biological target: T1, Egl1-819 (Drosophila melanogaster, UniProt Q9W1K4 1-819); assay: fluorescence anisotropy; FA: 20 mM HEPES-NaOH pH 7.5, 100 mM NaCl, 10% glycerol, 20 C, 10 nM FAM-RNA; competition: 150 nM Egl512-819 + 10 nM FAM-K10 TLS, same buffer
T1 sequence: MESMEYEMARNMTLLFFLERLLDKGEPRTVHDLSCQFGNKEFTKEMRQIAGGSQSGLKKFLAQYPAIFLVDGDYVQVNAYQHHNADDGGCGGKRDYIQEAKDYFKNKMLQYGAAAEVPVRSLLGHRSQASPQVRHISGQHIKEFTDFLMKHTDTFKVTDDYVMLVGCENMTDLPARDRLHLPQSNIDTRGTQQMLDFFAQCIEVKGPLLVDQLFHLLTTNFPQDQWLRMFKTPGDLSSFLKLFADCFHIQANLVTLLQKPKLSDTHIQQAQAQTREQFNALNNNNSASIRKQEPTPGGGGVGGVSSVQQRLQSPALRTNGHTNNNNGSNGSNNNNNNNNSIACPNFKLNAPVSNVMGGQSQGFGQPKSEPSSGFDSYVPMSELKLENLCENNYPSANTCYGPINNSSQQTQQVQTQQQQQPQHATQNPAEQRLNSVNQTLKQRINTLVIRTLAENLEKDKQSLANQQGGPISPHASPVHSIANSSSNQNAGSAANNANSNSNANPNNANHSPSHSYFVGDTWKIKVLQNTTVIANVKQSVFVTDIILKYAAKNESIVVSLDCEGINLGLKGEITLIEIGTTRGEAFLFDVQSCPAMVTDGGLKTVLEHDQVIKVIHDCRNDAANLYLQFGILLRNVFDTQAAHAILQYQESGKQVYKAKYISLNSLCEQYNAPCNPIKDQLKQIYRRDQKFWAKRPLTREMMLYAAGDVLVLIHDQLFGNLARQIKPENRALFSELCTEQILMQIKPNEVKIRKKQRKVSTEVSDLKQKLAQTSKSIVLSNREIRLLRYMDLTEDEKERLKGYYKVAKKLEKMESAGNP

R782E = biological target: T2, R782E (Drosophila melanogaster, UniProt Q9W1K4 512-819, R782E); assay: as above
T2 sequence: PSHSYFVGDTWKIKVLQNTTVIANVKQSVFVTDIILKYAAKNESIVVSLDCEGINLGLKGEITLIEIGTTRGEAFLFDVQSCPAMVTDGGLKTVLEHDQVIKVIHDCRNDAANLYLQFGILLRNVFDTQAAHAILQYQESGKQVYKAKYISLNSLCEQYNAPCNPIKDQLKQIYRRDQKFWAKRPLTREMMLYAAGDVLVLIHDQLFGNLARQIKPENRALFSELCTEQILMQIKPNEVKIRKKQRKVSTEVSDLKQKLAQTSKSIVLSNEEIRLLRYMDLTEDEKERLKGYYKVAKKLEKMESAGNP

K659E/K754E/R788E = biological target: T3, K659E/K754E/R788E (Drosophila melanogaster, UniProt Q9W1K4 512-819, K659E;K754E;R788E); assay: fluorescence anisotropy; binding not detected; FA: 20 mM HEPES-NaOH pH 7.5, 100 mM NaCl, 10% glycerol, 20 C, 10 nM FAM-RNA; competition: 150 nM Egl512-819 + 10 nM FAM-K10 TLS, same buffer
T3 sequence: T2 sequence with K148E, K243E, E271R, R277E

B1: K10 TLS (FAM) (structured_RNA)
RNA: CUUGAUUGUAUUUUUAAAUUAAUUCUUAAAAACUACAAAUUAAG
Egl1-819
  Kd: 127 ± 7 nM
R782E
  Kd: 235 ± 30 nM
K659E/K754E/R788E
  binding result: no binding
